This experiment addresses FLAG-Sur1 (UniProt Q09427). In words: FRET or BRET. (Bioluminescence resonance energy transfer reports proximity on the nanometre scale.)
UniProt Q09427, sequence (Q09427 whole entry): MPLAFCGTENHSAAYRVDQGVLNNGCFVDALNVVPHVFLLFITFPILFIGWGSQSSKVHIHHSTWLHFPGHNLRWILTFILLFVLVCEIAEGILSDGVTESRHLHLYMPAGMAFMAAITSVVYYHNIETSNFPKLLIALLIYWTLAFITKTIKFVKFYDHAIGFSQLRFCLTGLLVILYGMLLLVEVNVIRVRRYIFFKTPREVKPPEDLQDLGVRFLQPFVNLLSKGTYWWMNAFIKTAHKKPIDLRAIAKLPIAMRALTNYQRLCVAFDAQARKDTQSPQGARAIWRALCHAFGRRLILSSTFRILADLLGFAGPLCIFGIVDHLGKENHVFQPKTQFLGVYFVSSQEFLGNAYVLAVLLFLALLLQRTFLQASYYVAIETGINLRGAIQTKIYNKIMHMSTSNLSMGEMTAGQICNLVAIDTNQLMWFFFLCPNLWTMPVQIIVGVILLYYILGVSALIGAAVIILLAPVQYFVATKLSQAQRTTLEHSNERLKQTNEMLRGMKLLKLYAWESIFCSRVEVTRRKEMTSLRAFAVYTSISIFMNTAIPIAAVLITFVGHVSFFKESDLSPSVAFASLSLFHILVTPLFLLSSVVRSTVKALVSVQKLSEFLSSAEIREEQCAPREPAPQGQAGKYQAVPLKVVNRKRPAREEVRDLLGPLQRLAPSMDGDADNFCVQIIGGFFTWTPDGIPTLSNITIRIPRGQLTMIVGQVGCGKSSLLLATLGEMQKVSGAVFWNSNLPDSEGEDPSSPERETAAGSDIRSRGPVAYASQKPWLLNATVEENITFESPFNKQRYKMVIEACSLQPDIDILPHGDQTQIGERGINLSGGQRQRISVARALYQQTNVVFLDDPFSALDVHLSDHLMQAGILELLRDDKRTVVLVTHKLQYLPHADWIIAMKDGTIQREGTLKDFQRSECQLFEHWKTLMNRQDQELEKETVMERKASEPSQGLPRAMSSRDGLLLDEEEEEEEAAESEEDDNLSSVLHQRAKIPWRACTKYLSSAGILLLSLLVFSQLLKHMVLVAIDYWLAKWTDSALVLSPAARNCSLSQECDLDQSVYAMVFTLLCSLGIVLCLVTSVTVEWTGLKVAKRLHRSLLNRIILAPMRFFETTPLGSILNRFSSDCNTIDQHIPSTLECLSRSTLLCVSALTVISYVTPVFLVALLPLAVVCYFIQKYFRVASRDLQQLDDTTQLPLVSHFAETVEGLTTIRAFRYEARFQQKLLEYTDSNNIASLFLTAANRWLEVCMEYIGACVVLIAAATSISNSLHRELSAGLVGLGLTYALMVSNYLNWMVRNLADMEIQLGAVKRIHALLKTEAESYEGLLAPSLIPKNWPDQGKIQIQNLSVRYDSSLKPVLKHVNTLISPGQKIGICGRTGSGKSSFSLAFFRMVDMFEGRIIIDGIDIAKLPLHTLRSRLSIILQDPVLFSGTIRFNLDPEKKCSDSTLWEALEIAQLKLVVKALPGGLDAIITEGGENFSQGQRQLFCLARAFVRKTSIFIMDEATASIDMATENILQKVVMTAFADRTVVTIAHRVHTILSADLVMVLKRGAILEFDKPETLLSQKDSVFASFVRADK

On to “Myc-Trpm4 (from UniProt Q7TN37-1 1-1213) (natural protein)”, for which the FRET efficiency at steady state was 11%.
